Legend:
Assay in all cases: peptide microarray of 8mer LY75 peptides, LY75_A1 at 1 µg/mL, anti-human IgG Alexa 647
[1] = target: T1, YFHQHSIL
T1 construct: 8mer of LY75 on the peptide microarray, chart Region 8
T1 peptide: YFHQHSIL
Method: (§1) The peptide microarray analysis was performed by LC Sciences, Houston Tex., in brief the method comprised the following steps:—Contiguous 8mer peptides of LY75 protein having […] spanning residues 216 to 1666 of the full length LY75 protein were synthesized and immobilized on a microarray chip. The chip comprised three panels such that the experiment was performed in triplicate. The microarray was addressed with LY75_A1 to identify the peptides to which the antibody bound. The binding assay was performed under the following conditions:—
(§2) The microarray comprising the contiguous peptides in triplicate was washed with 1 mL of binding buffer at 4° C. for 20 min. It was then incubated with 1 μg/mL LY75_A1 in binding buffer (pH 7.0) at 4° C. for 2 hrs. The array was again washed with 0.5 mL of washing buffer at 4° C. for 30 min then incubated with 25 ng/mL anti-human IgG Alexa 647 conjugate in binding buffer (pH 7.0) at 4° C. for 1 hr. The array was again washed with 0.5 mL of washing buffer at 4° C. for 30 min.

[2] = target: T2, RYPWHRFP
T2 construct: 8mer of LY75 on the peptide microarray, chart Region 4
T2 peptide: RYPWHRFP
Method: as §1, §2

[3] = target: T3, ELTYSNFH
T3 construct: 8mer of LY75 on the peptide microarray, chart Region 5
T3 peptide: ELTYSNFH
Method: as §1, §2

[4] = target: T4, SRWIQYKG
T4 construct: 8mer of LY75 on the peptide microarray, chart Region 10
T4 peptide: SRWIQYKG
Method: as §1, §2

[5] = target: T5, YLNNLYKI
T5 construct: 8mer of LY75 on the peptide microarray, chart Region 7
T5 peptide: YLNNLYKI
Method: as §1, §2

[6] = target: T6, VSLCQKYS
T6 construct: 8mer of LY75 on the peptide microarray, chart Region 6
T6 peptide: VSLCQKYS
Method: as §1, §2

[7] = target: T7, DDHFTYSR
T7 construct: 8mer of LY75 on the peptide microarray, chart Region 4
T7 peptide: DDHFTYSR
Method: as §1, §2

[8] = target: T8, KKLSRLTY
T8 construct: 8mer of LY75 on the peptide microarray, chart Region 9
T8 peptide: KKLSRLTY
Method: as §1, §2

[9] = target: T9, TYSNFHPL
T9 construct: 8mer of LY75 on the peptide microarray, chart Region 5
T9 peptide: TYSNFHPL
Method: as §1, §2

[10] = target: T10, FTSCSERH
T10 construct: 8mer of LY75 on the peptide microarray, chart Region 6
T10 peptide: FTSCSERH
Method: as §1, §2

[11] = target: T11, YSNFHPLL
T11 construct: 8mer of LY75 on the peptide microarray, chart Region 5
T11 peptide: YSNFHPLL
Method: as §1, §2

[12] = target: T12, NGSRWIQY
T12 construct: 8mer of LY75 on the peptide microarray, chart Region 10
T12 peptide: NGSRWIQY
Method: as §1, §2

[13] = target: T13, SCYKVFHA
T13 construct: 8mer of LY75 on the peptide microarray, chart Region 2
T13 peptide: SCYKVFHA
Method: as §1, §2

[14] = target: T14, YKSDQALH
T14 construct: 8mer of LY75 on the peptide microarray, chart Region 10
T14 peptide: YKSDQALH
Method: as §1, §2

[15] = target: T15, LTYSNFHP
T15 construct: 8mer of LY75 on the peptide microarray, chart Region 5
T15 peptide: LTYSNFHP
Method: as §1, §2

[16] = target: T16, EAVYFHQH
T16 construct: 8mer of LY75 on the peptide microarray, chart Region 8
T16 peptide: EAVYFHQH
Method: as §1, §2

[17] = target: T17, FVSLCQKY
T17 construct: 8mer of LY75 on the peptide microarray, chart Region 6
T17 peptide: FVSLCQKY
Method: as §1, §2

[18] = target: T18, SCSERHFV
T18 construct: 8mer of LY75 on the peptide microarray, chart Region 6
T18 peptide: SCSERHFV
Method: as §1, §2

[19] = target: T19, SERHFVSL
T19 construct: 8mer of LY75 on the peptide microarray, chart Region 6
T19 peptide: SERHFVSL
Method: as §1, §2

[20] = target: T20, DHFTYSRY
T20 construct: 8mer of LY75 on the peptide microarray, chart Region 4
T20 peptide: DHFTYSRY
Method: as §1, §2

[21] = target: T21, KGHCYKSD
T21 construct: 8mer of LY75 on the peptide microarray, chart Region 10
T21 peptide: KGHCYKSD
Method: as §1, §2

[22] = target: T22, YKGHCYKS
T22 construct: 8mer of LY75 on the peptide microarray, chart Region 10
T22 peptide: YKGHCYKS
Method: as §1, §2

[23] = target: T23, GSRWIQYK
T23 construct: 8mer of LY75 on the peptide microarray, chart Region 10
T23 peptide: GSRWIQYK
Method: as §1, §2

[24] = target: T24, YPWHRFPV
T24 construct: 8mer of LY75 on the peptide microarray, chart Region 4
T24 peptide: YPWHRFPV
Method: as §1, §2

Measured: binding result

B1: LY75_A1 (antibody, V domains shown)
VH: EVQLVESGGGLVKPGGSLRLSCAASGFTYSNAWMSWVRQAPGKGLEWVGRIKSKTDGGTTDYAAPVQGRFTISRDDSKNTLYLQMNSLKTEDTAVYYCTIFGVVSFDYWGQGTLVTVSS
VL: DVQMTQSPSSLSASVGDRVTITCRASQSISDYLSWYQQRPGKAPNLLIYAASNLKTGVPSRFSGSGSGTDFTLTISTLQPEDFATYYCQQSYRSPWTFGQGTKVEIKR
notes: detected with anti-human IgG in the microarray; also called antibody LY75_A1; LY75_A1 monoclonal antibody
binds: all assays above

From patent US20200040086A1 (BERLIN CHEMIE, published 2020)
